Publication PMC2881104

Molecular target: regulatory domain of OxyR (NMB0173) from Neisseria meningitidis, reduced form (N. meningitidis)
Assay: crystal structure; selenomethionine protein, His tag removed, 9 mg/ml in 20 mM Tris pH 7.5, 200 mM NaCl, 2 mM TCEP; reservoir 20% w/v PEG 3350, 0.2 M calcium acetate; 2.4 Å; dimer in the asymmetric unit

## regulatory domain of OxyR (NMB0173) from Neisseria meningitidis, reduced form (domain or fragment)
  stoichiometry N: 2
